Assay [1] has as its target ICAM-1 on tumor cells (HeLa, 8505C) (human) (UniProt P05362). Briefly: cell-based or functional assay.
Assay [2] shares this target. Put plainly: flow cytometry, HeLa cells, R6.5 antibody at 10 µg/ml; ICAM-1 negative 293T control reads 0%. For orientation: Flow cytometry measures light scatter and fluorescence of single cells or particles in a stream.
Assay [3] has the same target. Briefly: flow cytometry, 8505C cells, R6.5 antibody at 10 µg/ml; ICAM-1 negative 293T control reads 0%.
For assay [4] the target is unchanged. Put plainly: estimated from titrated R65 antibody binding to HeLa cells.

What is called Kd is the concentration at which binding is half-saturated.

Sequence of ICAM-1 on tumor cells (HeLa, 8505C) (human) (P05362 28-532): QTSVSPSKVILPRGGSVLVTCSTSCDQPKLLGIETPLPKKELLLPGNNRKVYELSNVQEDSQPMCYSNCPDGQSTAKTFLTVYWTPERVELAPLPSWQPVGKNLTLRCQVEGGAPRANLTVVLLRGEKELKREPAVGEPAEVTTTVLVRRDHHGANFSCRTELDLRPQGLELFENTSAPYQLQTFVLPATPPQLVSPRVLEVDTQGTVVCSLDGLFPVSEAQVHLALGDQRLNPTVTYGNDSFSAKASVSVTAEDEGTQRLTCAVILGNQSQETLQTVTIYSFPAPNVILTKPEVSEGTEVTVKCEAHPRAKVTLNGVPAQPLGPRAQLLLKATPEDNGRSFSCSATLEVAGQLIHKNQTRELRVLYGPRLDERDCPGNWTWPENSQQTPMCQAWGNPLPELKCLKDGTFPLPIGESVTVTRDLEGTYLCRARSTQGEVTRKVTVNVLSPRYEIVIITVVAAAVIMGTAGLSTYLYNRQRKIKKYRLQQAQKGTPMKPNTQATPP

In assay [1], “R6.5-CAR (third generation anti-ICAM-1 chimeric antigen receptor on primary human T cells) (from UniProt P10747 153-220; Q07011 214-255; P20963 52-164) (scFv)” gave a percent of 8505C cells viable after 24 hours with CAR T cells, E:T 2.5:1 (bioluminescence, normalized to non-transduced T cells) of 52% and a percent of HeLa cells viable after 24 hours with CAR T cells, E:T 2.5:1 (bioluminescence, normalized to non-transduced T cells) of 17%.

B1: murine monoclonal anti-human ICAM-1 antibody R6.5 (antibody, from another filing, V domains shown)
VH: QVQLQQSGPELVRPGVSVKISCKGSGYTFIDYAIHWVKESHAKSLEWIGVISAYSGDTNYNQKFKGKATMTVDKSSNTAYLELARLTSEDSAIYYCARGGWLLLSFDYWGQGTTLTVSS
VL: DVVMTQSPLSLPVSLGDQASISCRSSQSLVHSNGNNYLHWYLQKSGQAPKLLIYKVSNRFSGVPDRFSGSGSGTDFTLKISRVEAEDLGVYFCSQSTHVPLTFGGGTKLEIKR
In the case of B1, the % ICAM-1 positive cells came out at 100% in assay [2] and 97% in assay [3]. In assay [4], the Kd was 10 nM.

Source of the values: patent US20200181238A1.
